Assay results published in publication PMC8565331, “The RNA chaperone StpA enables fast RNA refolding by destabilization of mutually exclusive base pairs within competing secondary structure elements”.

Key:
StpA-CTD [1] = target: T1, StpA-CTD (Escherichia coli, UniProt P0ACG1 90-134); test: ITC; 5 C; n=1.74; 50 mM BisTris, 25 mM NaCl, pH 6.4; ITC at 5 and 25 C (40 uM RNA in cell, StpA-CTD 400/800/920 uM injected); NMR with 10% D2O, titration at 25 C; conditions: protein: recombinant; tags: none (His6-SUMOstar removed by SUMO protease); chain copies: 2; hairpin (5'-fold)
T1 chain: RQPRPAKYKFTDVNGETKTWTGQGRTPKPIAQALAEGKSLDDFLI

StpA-CTD [2] = target: T1, StpA-CTD; test: ITC; 25 C; n=1.69; 50 mM BisTris, 25 mM NaCl, pH 6.4; ITC at 5 and 25 C (40 uM RNA in cell, StpA-CTD 400/800/920 uM injected); NMR with 10% D2O, titration at 25 C; conditions: protein: recombinant; tags: none (His6-SUMOstar removed by SUMO protease); chain copies: 2; hairpin (5'-fold)
StpA-CTD [3] = target: T1, StpA-CTD; test: ITC; 5 C; n=1.93; 50 mM BisTris, 25 mM NaCl, pH 6.4; ITC at 5 and 25 C (40 uM RNA in cell, StpA-CTD 400/800/920 uM injected); NMR with 10% D2O, titration at 25 C; conditions: protein: recombinant; tags: none (His6-SUMOstar removed by SUMO protease); chain copies: 2; hairpin, locked 5'-fold
StpA-CTD [4] = target: T1, StpA-CTD; test: ITC; 25 C; n=1.80; 50 mM BisTris, 25 mM NaCl, pH 6.4; ITC at 5 and 25 C (40 uM RNA in cell, StpA-CTD 400/800/920 uM injected); NMR with 10% D2O, titration at 25 C; conditions: protein: recombinant; tags: none (His6-SUMOstar removed by SUMO protease); chain copies: 2; hairpin, locked 5'-fold
StpA-CTD [5] = target: T1, StpA-CTD; test: ITC; 25 C; n=1.74; 50 mM BisTris, 25 mM NaCl, pH 6.4; ITC at 5 and 25 C (40 uM RNA in cell, StpA-CTD 400/800/920 uM injected); NMR with 10% D2O, titration at 25 C; conditions: protein: recombinant; tags: none (His6-SUMOstar removed by SUMO protease); chain copies: 2; hairpin (3'-fold), 1 nt 5' overhang
StpA-CTD [6] = target: T1, StpA-CTD; test: ITC; 5 C; n=1.78; 50 mM BisTris, 25 mM NaCl, pH 6.4; ITC at 5 and 25 C (40 uM RNA in cell, StpA-CTD 400/800/920 uM injected); NMR with 10% D2O, titration at 25 C; conditions: protein: recombinant; tags: none (His6-SUMOstar removed by SUMO protease); chain copies: 2; hairpin (3'-fold), 1 nt 5' overhang
StpA-CTD [7] = target: T1, StpA-CTD; test: ITC; 25 C; n=1.93; 50 mM BisTris, 25 mM NaCl, pH 6.4; ITC at 5 and 25 C (40 uM RNA in cell, StpA-CTD 400/800/920 uM injected); NMR with 10% D2O, titration at 25 C; conditions: protein: recombinant; tags: none (His6-SUMOstar removed by SUMO protease); chain copies: 2
StpA-CTD [8] = target: T1, StpA-CTD; test: ITC; 5 C; n=1.84; 50 mM BisTris, 25 mM NaCl, pH 6.4; ITC at 5 and 25 C (40 uM RNA in cell, StpA-CTD 400/800/920 uM injected); NMR with 10% D2O, titration at 25 C; conditions: protein: recombinant; tags: none (His6-SUMOstar removed by SUMO protease); chain copies: 2
StpA-CTD [9] = target: T1, StpA-CTD; test: ITC; 5 C; n=2.21; 50 mM BisTris, 25 mM NaCl, pH 6.4; ITC at 5 and 25 C (40 uM RNA in cell, StpA-CTD 400/800/920 uM injected); NMR with 10% D2O, titration at 25 C; conditions: protein: recombinant; tags: none (His6-SUMOstar removed by SUMO protease); chain copies: 2; hairpin, locked 3'-fold
StpA-CTD [10] = target: T1, StpA-CTD; test: ITC; 25 C; n=2.33; 50 mM BisTris, 25 mM NaCl, pH 6.4; ITC at 5 and 25 C (40 uM RNA in cell, StpA-CTD 400/800/920 uM injected); NMR with 10% D2O, titration at 25 C; conditions: protein: recombinant; tags: none (His6-SUMOstar removed by SUMO protease); chain copies: 2; hairpin, locked 3'-fold

B1: 5'-HP (structured_RNA)
RNA: GACCGGAAGGUCC
Kd (StpA-CTD [1]): 13.3 ± 3.7 µM
Kd (StpA-CTD [2]): 24.7 ± 0.6 µM

B2: G6-m1G (structured_RNA)
RNA: GACCGGAAGGUCCGCCUUCC
modifications: N1-methylguanosine at G6
Kd (StpA-CTD [3]): 16.3 ± 0.7 µM
Kd (StpA-CTD [4]): 17.5 ± 1.3 µM

B3: 3'-HP (structured_RNA)
RNA: CGGAAGGUCCGCCUUCC
Kd (StpA-CTD [5]): 16.1 ± 2.6 µM
Kd (StpA-CTD [6]): 11.3 ± 1.4 µM

B4: bistable 20mer RNA (structured_RNA)
RNA: GACCGGAAGGUCCGCCUUCC
Kd (StpA-CTD [7]): 12.3 ± 1.7 µM
Kd (StpA-CTD [8]): 9.4 ± 1.3 µM

B5: A2-DMA (structured_RNA)
RNA: GACCGGAAGGUCCGCCUUCC
modifications: N6-dimethyladenosine at A2
Kd (StpA-CTD [9]): 8.31 ± 0.8 µM
Kd (StpA-CTD [10]): 13.6 ± 1.6 µM
